From IntAct's records for PubMed 31515488

B1: Protein LDOC1 (Homo sapiens), O95751 (parent)
chain: MVDELVLLLHALLMRHRALSIENSQLMEQLRLLVCERASLLRQVRPPSCPVPFPETFNGESSRLPEFIVQTASYMLVNENRFCNDAMKVAFLISLLTGEAEEWVVPYIEMDSPILGDYRAFLDEMKQCFGWDDDEDDDDEEEEDDY
partner: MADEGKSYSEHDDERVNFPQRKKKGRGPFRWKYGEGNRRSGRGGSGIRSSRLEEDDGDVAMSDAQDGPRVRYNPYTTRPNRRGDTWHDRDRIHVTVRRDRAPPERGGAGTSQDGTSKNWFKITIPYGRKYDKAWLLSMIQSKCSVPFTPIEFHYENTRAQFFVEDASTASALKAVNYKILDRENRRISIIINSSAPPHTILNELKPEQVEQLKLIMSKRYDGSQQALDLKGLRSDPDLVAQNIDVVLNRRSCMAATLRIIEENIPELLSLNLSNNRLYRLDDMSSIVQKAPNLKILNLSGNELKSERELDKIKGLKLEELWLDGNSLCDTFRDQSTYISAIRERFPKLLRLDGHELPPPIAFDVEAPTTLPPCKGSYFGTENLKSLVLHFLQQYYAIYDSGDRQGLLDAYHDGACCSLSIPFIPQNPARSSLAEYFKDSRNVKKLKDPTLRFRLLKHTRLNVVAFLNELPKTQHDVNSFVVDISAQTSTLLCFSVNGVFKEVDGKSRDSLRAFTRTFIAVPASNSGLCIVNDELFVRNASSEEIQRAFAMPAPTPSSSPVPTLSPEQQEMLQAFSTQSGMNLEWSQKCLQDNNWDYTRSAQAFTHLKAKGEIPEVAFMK
B2: Coiled-coil domain-containing protein 33 (Homo sapiens), Q8N5R6-5 (parent)
chain: MGEPGPPSPPAPKAAPGLIDSFSEMNNYRRAMQKMAEDILSLRRQASILEGENRILRSRLAQQEEEEGQGKASEAQNTVSMKQKLLLSELDMKKLRDRVQHLQNELIRKNDREKELLLLYQAQQPQAALLKQYQGKLQKMKALEETVRHQEKVIEKMERVLEDRLQDRSKPPPLNRQQGKPYTGFPMLSASGLPLGSMGENLPVELYSVLLAENAKLRTELDKNRHQQAPIILQQQALPVDPGELGAGGDLTERLQETHGPGHSECTETLPAQDLLSGTSDKFNLLAKLEHAQSRILSLESQLEDSARRWGREKQDLATRLQEQEKGFRHPSNSIIIEQPVSDPPGVAPRGSGGGAGSHRTPKVTGP
B3: Retinoic acid receptor alpha (Homo sapiens), P10276 (parent)
chain: MASNSSSCPTPGGGHLNGYPVPPYAFFFPPMLGGLSPPGALTTLQHQLPVSGYSTPSPATIETQSSSSEEIVPSPPSPPPLPRIYKPCFVCQDKSSGYHYGVSACEGCKGFFRRSIQKNMVYTCHRDKNCIINKVTRNRCQYCRLQKCFEVGMSKESVRNDRNKKKKEVPKPECSESYTLTPEVGELIEKVRKAHQETFPALCQLGKYTTNNSSEQRVSLDIDLWDKFSELSTKCIIKTVEFAKQLPGFTTLTIADQITLLKAACLDILILRICTRYTPEQDTMTFSDGLTLNRTQMHNAGFGPLTDLVFAFANQLLPLEMDDAETGLLSAICLICGDRQDLEQPDRVDMLQEPLLEALKVYVRKRRPSRPHMFPKMLMKITDLRSISAKGAERVITLKMEIPGSMPPLIQEMLENSEGLDTLSGQPGGGGRDGGGLAPPPGSCSPSLSPSSNRSSPATHSP
partner: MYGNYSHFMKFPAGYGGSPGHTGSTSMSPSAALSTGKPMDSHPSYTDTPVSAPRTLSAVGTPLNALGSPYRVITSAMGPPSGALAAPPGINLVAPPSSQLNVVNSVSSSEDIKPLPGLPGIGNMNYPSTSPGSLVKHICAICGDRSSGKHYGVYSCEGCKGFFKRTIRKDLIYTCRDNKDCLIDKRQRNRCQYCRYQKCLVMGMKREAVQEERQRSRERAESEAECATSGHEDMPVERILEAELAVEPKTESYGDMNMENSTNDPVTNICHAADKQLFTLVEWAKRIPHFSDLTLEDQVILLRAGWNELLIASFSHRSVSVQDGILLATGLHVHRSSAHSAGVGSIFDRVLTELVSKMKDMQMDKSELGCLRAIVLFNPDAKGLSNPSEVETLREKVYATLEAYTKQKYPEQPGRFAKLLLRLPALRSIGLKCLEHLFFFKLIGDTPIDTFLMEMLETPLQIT
B4: Growth arrest and DNA damage-inducible protein GADD45 gamma (Homo sapiens), O95257 (parent)
chain: MTLEEVRGQDTVPESTARMQGAGKALHELLLSAQRQGCLTAGVYESAKVLNVDPDNVTFCVLAAGEEDEGDIALQIHFTLIQAFCCENDIDIVRVGDVQRLAAIVGAGEEAGAPGDLHCILISNPNEDAWKDPALEKLSLFCEESRSVNDWVPSITLPE
B5: Keratin, type I cuticular Ha3-II (Homo sapiens), Q14525 (parent)
chain: MPYNFCLPSLSCRTSCSSRPCVPPSCHGYTLPGACNIPANVSNCNWFCEGSFNGSEKETMQFLNDRLASYLEKVRQLERDNAELENLIRERSQQQEPLLCPSYQSYFKTIEELQQKILCSKSENARLVVQIDNAKLAADDFRTKYQTEQSLRQLVESDINSLRRILDELTLCRSDLEAQMESLKEELLSLKQNHEQEVNTLRCQLGDRLNVEVDAAPAVDLNQVLNETRNQYEALVETNRREVEQWFATQTEELNKQVVSSSEQLQSYQAEIIELRRTVNALEIELQAQHNLRYSLENTLTESEARYSSQLSQVQSLITNVESQLAEIRSDLERQNQEYQVLLDVRARLECEINTYRSLLESEDCKLPSNPCATTNACEKPIGSCVTNPCGPRSRCGPCNTFGY
B6: Actin-associated protein FAM107A (Homo sapiens), O95990 (parent)
chain: MYSEIQRERADIGGLMARPEYREWNPELIKPKKLLNPVKASRSHQELHRELLMNHRRGLGVDSKPELQRVLEHRRRNQLIKKKKEELEAKRLQCPFEQELLRRQQRLNQLEKPPEKEEDHAPEFIKVRENLRRIATLTSEEREL
partner: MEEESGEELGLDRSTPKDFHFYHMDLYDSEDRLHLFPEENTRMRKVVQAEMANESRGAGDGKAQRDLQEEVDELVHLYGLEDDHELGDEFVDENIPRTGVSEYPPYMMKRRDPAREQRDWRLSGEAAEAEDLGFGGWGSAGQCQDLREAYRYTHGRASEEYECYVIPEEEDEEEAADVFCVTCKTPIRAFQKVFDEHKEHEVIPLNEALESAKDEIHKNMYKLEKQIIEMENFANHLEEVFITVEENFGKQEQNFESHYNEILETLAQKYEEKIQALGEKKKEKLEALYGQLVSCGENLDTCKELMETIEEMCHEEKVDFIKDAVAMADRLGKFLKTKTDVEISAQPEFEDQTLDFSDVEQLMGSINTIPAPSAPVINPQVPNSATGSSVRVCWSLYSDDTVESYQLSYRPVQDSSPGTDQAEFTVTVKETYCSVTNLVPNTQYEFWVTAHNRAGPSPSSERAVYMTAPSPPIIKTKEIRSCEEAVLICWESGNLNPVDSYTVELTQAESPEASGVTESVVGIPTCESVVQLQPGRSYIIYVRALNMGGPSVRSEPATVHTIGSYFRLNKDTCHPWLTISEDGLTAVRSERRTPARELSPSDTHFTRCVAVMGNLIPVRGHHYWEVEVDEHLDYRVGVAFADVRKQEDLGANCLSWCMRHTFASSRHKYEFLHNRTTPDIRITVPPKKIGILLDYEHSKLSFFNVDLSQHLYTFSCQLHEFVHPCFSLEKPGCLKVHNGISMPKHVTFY
B7: Proline-rich protein 14 (Homo sapiens), Q9BWN1 (parent)
chain: MDLPGDSSPPGQPRLCRQPLTRALWGARSPKRPRLQLPGAPSPLEKASRRVLAVVLEDVMAVHMVPVVPSKQTSIPQHHSYHQDPVHRQPPASPPRQAGWSSQARPPDPLCLCREPLSRIHRTSSTLRRRSRTTPGPEEGPSQKVDRAPQPTLVVMLEDIASPRPPAEGFIDETPNFIIPAQRAEPMRIVRQPTPPPGDLEPPFQPSALPADPLESPPTAPDPALELPSTPPPSSLLRPRLSPWGLAPLFRSVRSKLESFADIFLTPNKTPQPPPPSPPMKLELKIAISEAEQSGAAEGTASVSPRPPIRQWRTQDHNTPALLPKPSLGRSYSCPDLGPPGPGTCTWPPAPPQPSRPRPRRHTVGGGEMARAPPPPRPCLRKEVFPLGGVGASPSLTTSCSSTASTSFSEPAEPRLGSTKGKEPRASKDQVLSEPETKTMGKVSRFRIRRTPARPQLNLTPMGLPRPIRLNKKEFSLEEIYTNKNYQSPTTRRTFETIFEEPRERNGTLIFTSSRKLRRAVEFRDSSLPRSRRPSRGVRAAGGRTVPPNVAPSPDVGPLLQQRLEELDALLLEEETVDREQPHWT
B8: Dynein light chain 2, cytoplasmic (Homo sapiens), Q96FJ2 (parent)
chain: MSDRKAVIKNADMSEDMQQDAVDCATQAMEKYNIEKDIAAYIKKEFDKKYNPTWHCIVGRNFGSYVTHETKHFIYFYLGQVAILLFKSG

Variants of: B1
Conditions: with nxf1_human NXF1, Q9UBU9

Variant	effect of a mutation on the interaction
L12H	disrupting interaction strength

Variants of: B2
Conditions: with smad3_human SMAD3, P84022
Chain of smad3_human SMAD3, P84022 (P84022 whole entry, looked up): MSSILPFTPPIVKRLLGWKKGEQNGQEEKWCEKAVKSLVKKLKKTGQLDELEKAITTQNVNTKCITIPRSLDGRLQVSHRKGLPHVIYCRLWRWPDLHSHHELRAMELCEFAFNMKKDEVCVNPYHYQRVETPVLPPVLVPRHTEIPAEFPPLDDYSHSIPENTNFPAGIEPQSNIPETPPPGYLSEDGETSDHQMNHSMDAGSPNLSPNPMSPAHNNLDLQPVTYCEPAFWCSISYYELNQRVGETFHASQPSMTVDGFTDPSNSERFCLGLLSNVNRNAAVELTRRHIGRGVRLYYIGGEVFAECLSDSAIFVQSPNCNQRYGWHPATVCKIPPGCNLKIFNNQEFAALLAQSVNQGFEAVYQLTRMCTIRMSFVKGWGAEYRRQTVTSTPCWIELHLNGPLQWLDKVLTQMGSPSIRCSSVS

Variant	effect of a mutation on the interaction
G196R	with no effect
M25V	with no effect
R30L	with no effect
P203L	disrupting interaction strength

Variants of: B2
Conditions: with aakb2_human PRKAB2, O43741
Chain of aakb2_human PRKAB2, O43741 (O43741 whole entry): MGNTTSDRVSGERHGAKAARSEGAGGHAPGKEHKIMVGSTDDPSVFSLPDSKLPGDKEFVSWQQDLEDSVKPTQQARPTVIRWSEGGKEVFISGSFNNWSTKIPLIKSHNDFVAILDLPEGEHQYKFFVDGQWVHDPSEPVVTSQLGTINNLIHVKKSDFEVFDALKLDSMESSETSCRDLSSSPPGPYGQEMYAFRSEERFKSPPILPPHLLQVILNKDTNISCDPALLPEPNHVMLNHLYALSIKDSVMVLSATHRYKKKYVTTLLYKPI

Variant	effect of a mutation on the interaction
G196R	with no effect
M25V	with no effect
R30L	with no effect
P203L	with no effect

Variants of: B2
Conditions: with blk_human BLK

Variant	effect of a mutation on the interaction
G196R	with no effect
M25V	with no effect
R30L	with no effect
P203L	with no effect

Variants of: B2
Conditions: with ptk6_human PTK6, Q13882

Variant	effect of a mutation on the interaction
S73N	with no effect

Variants of: B2
Conditions: with bccip_human BCCIP

Variant	effect of a mutation on the interaction
S73N	with no effect

Variants of: B3
Conditions: with rxrg_human RXRG

Variant	effect of a mutation on the interaction
P318R	with no effect

Variants of: B4
Conditions: with af1l1_human AFAP1L1, Q8TED9
Chain of af1l1_human AFAP1L1, Q8TED9 (Q8TED9 whole entry): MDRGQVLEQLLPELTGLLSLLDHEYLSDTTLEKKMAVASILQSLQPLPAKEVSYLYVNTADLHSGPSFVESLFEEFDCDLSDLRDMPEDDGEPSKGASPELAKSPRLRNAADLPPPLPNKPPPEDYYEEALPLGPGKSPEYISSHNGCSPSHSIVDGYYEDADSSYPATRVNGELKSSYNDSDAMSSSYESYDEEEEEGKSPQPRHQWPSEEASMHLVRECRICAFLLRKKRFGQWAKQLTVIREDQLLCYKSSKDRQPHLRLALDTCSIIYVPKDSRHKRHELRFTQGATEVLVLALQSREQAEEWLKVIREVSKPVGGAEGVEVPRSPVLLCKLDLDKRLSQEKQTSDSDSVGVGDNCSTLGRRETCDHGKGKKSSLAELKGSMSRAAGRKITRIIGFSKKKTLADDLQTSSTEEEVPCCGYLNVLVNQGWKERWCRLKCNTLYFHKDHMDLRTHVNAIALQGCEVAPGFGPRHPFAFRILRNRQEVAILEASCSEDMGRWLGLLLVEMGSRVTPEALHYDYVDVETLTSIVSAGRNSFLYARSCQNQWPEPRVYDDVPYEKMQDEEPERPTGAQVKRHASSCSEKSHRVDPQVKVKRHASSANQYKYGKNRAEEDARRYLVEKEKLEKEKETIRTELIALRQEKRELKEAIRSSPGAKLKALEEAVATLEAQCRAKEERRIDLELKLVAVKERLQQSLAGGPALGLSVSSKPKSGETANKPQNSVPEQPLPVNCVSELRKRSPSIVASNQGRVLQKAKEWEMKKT

Variant	effect of a mutation on the interaction
G112S	with no effect

Variants of: B4
Conditions: with rwd2b_human RWDD2B

Variant	effect of a mutation on the interaction
G112S	disrupting interaction strength

Variants of: B5
Conditions: with k2c4_human KRT4, P19013
Chain of k2c4_human KRT4, P19013 (P19013 whole entry): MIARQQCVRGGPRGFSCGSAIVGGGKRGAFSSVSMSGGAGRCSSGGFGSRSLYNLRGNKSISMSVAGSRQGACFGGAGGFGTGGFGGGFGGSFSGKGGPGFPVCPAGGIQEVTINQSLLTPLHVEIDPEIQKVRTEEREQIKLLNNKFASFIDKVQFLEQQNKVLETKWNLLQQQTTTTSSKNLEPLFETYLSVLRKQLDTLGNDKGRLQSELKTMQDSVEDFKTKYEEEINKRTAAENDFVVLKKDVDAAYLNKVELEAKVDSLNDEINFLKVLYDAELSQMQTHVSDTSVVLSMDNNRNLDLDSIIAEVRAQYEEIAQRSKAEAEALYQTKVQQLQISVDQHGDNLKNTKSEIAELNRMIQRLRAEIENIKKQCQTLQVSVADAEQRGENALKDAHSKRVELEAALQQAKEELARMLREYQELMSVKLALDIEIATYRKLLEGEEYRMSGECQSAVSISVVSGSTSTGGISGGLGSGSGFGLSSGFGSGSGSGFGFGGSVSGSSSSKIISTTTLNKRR

Variant	effect of a mutation on the interaction
E85K	with no effect
Q223R	with no effect
I318V	with no effect
R66H	disrupting interaction strength

Variants of: B5
Conditions: with KRT79, Q5XKE5
Chain of KRT79, Q5XKE5 (Q5XKE5 whole entry): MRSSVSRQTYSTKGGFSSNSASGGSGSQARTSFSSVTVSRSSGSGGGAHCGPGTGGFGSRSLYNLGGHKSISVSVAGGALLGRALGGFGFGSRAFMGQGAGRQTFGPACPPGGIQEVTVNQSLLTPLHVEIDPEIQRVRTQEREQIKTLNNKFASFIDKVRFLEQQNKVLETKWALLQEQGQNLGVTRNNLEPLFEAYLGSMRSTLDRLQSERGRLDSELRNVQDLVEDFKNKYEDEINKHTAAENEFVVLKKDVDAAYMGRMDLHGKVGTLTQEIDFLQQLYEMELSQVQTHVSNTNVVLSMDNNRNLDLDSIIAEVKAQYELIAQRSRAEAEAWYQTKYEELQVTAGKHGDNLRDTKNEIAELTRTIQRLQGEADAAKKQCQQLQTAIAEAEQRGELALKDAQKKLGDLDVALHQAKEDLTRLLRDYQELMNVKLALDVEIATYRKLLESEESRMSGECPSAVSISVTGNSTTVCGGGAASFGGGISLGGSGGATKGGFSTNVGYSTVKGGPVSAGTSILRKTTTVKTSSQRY

Variant	effect of a mutation on the interaction
Y294D	with no effect

Variants of: B6
Conditions: with fsd2_human FSD2, A1L4K1

Variant	effect of a mutation on the interaction
E141Q	disrupting interaction strength

Variants of: B7
Conditions: with cbx5_human CBX5, P45973
Chain of cbx5_human CBX5, P45973 (P45973 whole entry): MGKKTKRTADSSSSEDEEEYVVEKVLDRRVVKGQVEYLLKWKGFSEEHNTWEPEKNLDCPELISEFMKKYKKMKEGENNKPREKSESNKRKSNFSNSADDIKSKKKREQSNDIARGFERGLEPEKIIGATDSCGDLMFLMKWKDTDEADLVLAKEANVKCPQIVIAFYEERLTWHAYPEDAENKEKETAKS

Variant	effect of a mutation on the interaction
P359L	with no effect
R114L	with no effect

Variants of: B8
Conditions: with tha10_human THAP10, Q9P2Z0
Chain of tha10_human THAP10, Q9P2Z0 (Q9P2Z0 whole entry): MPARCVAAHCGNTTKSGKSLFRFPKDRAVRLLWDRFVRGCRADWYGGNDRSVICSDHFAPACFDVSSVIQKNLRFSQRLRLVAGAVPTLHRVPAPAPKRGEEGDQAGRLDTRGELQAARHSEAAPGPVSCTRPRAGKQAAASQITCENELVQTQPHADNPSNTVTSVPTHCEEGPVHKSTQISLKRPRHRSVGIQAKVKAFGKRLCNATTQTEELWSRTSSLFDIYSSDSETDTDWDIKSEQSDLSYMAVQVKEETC

Variant	effect of a mutation on the interaction
N33S	with no effect
